This is an account of results in patent publication US20170131282A1.

Where only a bound is given, the exact number is not on record here.

What all share (test): cell-based or functional assay
Experiment [1] concerns the target human chemokine receptor CCR3 on human prostate tumor cells (PC-3, Du-145) (human) (UniProt P51677).
Experiment [2] concerns the target mouse chemokine receptor CCR3 (NM_009914) on mouse prostate tumor cells (TRAMP-C1P3, RM1-BM) (mouse) (UniProt P51678).
Experiment [3] concerns the target mouse chemokine CCL7 secreted in conditioned media of mouse adipocytes / adipose tissue (mouse) (UniProt Q03366).
UniProt Q03366, sequence (Q03366 24-97): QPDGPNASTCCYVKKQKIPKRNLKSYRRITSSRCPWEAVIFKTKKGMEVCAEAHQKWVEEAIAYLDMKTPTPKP

UniProt P51678, sequence (P51678 whole entry): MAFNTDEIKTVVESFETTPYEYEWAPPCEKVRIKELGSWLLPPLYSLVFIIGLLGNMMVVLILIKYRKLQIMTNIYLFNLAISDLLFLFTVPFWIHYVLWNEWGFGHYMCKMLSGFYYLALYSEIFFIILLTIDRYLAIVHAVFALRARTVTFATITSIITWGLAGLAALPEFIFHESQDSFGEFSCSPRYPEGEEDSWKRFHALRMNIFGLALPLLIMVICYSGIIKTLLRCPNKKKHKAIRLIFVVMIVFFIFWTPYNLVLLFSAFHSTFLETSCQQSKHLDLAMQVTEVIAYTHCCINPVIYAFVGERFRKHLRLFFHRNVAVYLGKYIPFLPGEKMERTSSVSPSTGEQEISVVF
UniProt P51677, sequence (P51677 whole entry): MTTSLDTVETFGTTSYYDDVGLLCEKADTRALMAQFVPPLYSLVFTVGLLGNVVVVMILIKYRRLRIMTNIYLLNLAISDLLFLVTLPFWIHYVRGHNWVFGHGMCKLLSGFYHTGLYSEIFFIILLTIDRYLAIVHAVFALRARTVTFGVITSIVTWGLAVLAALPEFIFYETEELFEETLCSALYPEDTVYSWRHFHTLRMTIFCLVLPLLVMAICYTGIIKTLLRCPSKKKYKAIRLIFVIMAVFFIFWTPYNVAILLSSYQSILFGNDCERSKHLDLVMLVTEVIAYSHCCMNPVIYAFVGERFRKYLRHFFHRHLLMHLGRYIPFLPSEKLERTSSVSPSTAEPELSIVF

With “human chemokine CCL7 (from UniProt P80098 24-99) (ligand)”, the migration of PC-3 and Du-145 prostate cells (Boyden chamber), dose from which the effect is significant in experiment [1] is greater than 50 ng/mL. In addition, in experiment [2], the chemotaxis of TRAMP-C1P3 cells (Boyden chamber), dose from which it is seen was greater than 50 ng/mL and the migration of RM1-BM cells (Boyden chamber) stood at 100 ng/mL.

For “blocking antibody targeted against CCL7 (AF-456-NA, R&D System)”, in experiment [3], the inhibition of migration of PC-3 and Du-145 cells against CM-Ad (Boyden chamber) was 50 % inhibition; the inhibition of migration of PC-3 cells against CM of HFD AT-mu-PG (obese mice) was determined as 60 % inhibition; the inhibition of migration of PC-3 cells against CM of ND AT-mu-PG (normal-weight mice) was 25 % inhibition.
